Measured values taken from US9493781B2, “Synthetic brassica-derived chloroplast transit peptides” (DOW AGROSCIENCES LLC, priority 2012, dated 2016).

Tests used:
Type in all cases: in vivo, Arabidopsis thaliana
[1] = test system: Arabidopsis; assay: dgt-28, dgt-32, dgt-33, dgt-3, dgt-7 transformed Arabidopsis (T1, T2, T3) response to postemergence glyphosate, % visual injury; settings: for % Injury Ave / % Injury Range (%) / No. plants with 20-40% injury / No. plants with <20% injury / No. plants with >40% injury: 14 days after application
In short: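 Transgenic T1, T2 and T3 Arabidopsis (low-copy events for T2/T3, hemizygous and homozygous in T2) sprayed postemergence with glyphosate at 105, 420, 1,680 or 3,360 g ae/ha. Visual injury scored 2 weeks after treatment as mean, SD and range. Non-transformed Columbia served as sensitive control.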

[2] = test system: Arabidopsis; assay: Heritability progeny test of T1 families (T2 plants) with glufosinate, Arabidopsis; settings: progeny test of 100 T2 plants, glufosinate 200 g ae/ha
In short: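 Self-pollinated T1 Arabidopsis events gave T2 seed; 100 random T2 siblings were sprayed with glufosinate at 200 g ae/ha and scored resistant/sensitive, segregation tested by Chi square against 3:1.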

[3] = test system: Arabidopsis; assay: dgt-31, dgt-32, dgt-33 v1 transformed T1 Arabidopsis response to glyphosate, % visual injury 2 WAT
Procedure: Selection of transformed plants. Freshly harvested T1 seed [dgt-31, dgt-32, and dgt-33 v1 gene] were allowed to dry at room temperature and shipped to Indianapolis for testing. T1 seed was sown in 26.5×51-cm germination trays (T.O. Plastics Inc., Clearwater, Minn.), each receiving a 200 mg aliquots of stratified T1 seed (˜10,000 seed) that had previously been suspended in 40 mL of 0.1% agarose solution and stored at 4° C. for 2 days to complete dormancy requirements and ensure synchronous seed germination.
Sunshine Mix LP5 (Sun Gro Horticulture Inc., Bellevue, Wash.) was covered with fine vermiculite and subirrigated with Hoagland's solution until wet, then allowed to gravity drain. Each 40 mL aliquot of stratified seed was sown evenly onto the vermiculite with a pipette and covered with humidity domes (KORD™ Products, Bramalea, Ontario, Canada) for 4-5 days. Domes were removed once plants had germinated prior to initial transformant selection using glufosinate postemergence spray (selecting for the co-transformed dsm-2 gene).
Six days after planting (DAP) and again 10 DAP, T1 plants (cotyledon and 2-4-lf stage, respectively) were sprayed with a 0.1% solution of IGNITE™ herbicide (280 g ai/L glufosinate, Bayer Crop Sciences, Kansas City, Mo.) at a spray volume of 10 mL/tray (703 L/ha) using a DeVilbiss™ compressed air spray tip to deliver an effective rate of 200 g ae/ha glufosinate per application. Survivors (plants actively growing) were identified 4-7 days after the final spraying. Surviving plants were transplanted individually into 3-inch pots prepared with potting media (Metro Mix 360™). Plants reared in the greenhouse at least 1 day prior to tissue sampling for copy number analyses.
T1 plants were sampled and copy number analysis for the dgt-31, dgt-32, and dgt-33 v1 gene were completed. T1 plants were then assigned to various rates of glyphosate so that a range of copies were among each rate. For Arabidopsis, 26.25 g ae/ha glyphosate is an effective dose to distinguish sensitive plants from ones with meaningful levels of resistance. Elevated rates were applied to determine relative levels of resistance (105, 420, 1680, or 3360 g ae/ha).
All glyphosate herbicide applications were made by track sprayer in a 187 L/ha spray volume. Glyphosate used was of the commercial Durango dimethylamine salt formulation (480 g ae/L, Dow AgroSciences, LLC).
T1 plants selected above were subsequently transplanted to individual pots and sprayed with various rates of commercial glyphosate. Table 16 compares the response of dgt-31, dgt-32, and dgt-33 v1 and control genes to impart glyphosate resistance to Arabidopsis T1 transformants. Response is presented in terms of % visual injury 2 WAT. […] An arithmetic mean and standard deviation is presented for each treatment. […]

[4] = Table 8, T1 Arabidopsis, 105 g ae/ha glyphosate
[5] = Table 8, T1 Arabidopsis, 420 g ae/ha glyphosate
[6] = Table 8, T1 Arabidopsis, 1680 g ae/ha glyphosate
[7] = Table 8, T1 Arabidopsis, 3360 g ae/ha glyphosate
[8] = Table 10, T1 Arabidopsis, 1,680 g ae/ha glyphosate
[9] = Table 12, T2 Arabidopsis, 1 copy, 420 g ae/ha glyphosate
[10] = Table 12, T2 Arabidopsis, 1 copy, 840 g ae/ha glyphosate
[11] = Table 12, T2 Arabidopsis, 1 copy, 1680 g ae/ha glyphosate
[12] = Table 12, T2 Arabidopsis, 1 copy, 3360 g ae/ha glyphosate

B1: pDAB105534: TraP13 v2 -- dgt-28 v5: binary construct TraP13 v2:dgt-28 v5 (SEQ ID NO:37) (nucleic acid)
DNA: ATGGCACAAGTTAGCAGAATCTGTAATGGTGTGCAGAACCCATCTCTTATCTCCAATCTCTCAAAGTCCAGCCAACGTAAGTCTCCCCTCAGCGTGTCTCTGAAAACTCAGCAGCCCAGAGCTTCTTCATGGGGTTTGAAGAAATCTGGAACGATGCTTAACGGCTCAGTCATTCGTCCGGTTAAGGTGACAGCCTCCGTCTCCGCTGCTAGAGGGATGCCAGCCTTGTCTTTACCTGGATCAAAGAGTATCACAGCTAGGGCACTCTTTCTTGCTGCTGCTGCTGATGGGGTTACTACTTTGGTGAGGCCATTGAGAAGTGACGACACAGAAGGATTCGCTGAGGGGTTAGTTCGTTTAGGCTATCGTGTAGGGAGGACACCCGATACTTGGCAAGTCGATGGCAGACCACAAGGACCAGCAGTGGCTGAGGCTGACGTCTACTGTAGAGACGGAGCAACCACCGCTAGATTCTTGCCAACCTTAGCAGCTGCTGGTCACGGAACATACAGATTTGATGCTTCACCACAGATGAGGAGACGTCCTCTTTTGCCCTTAAGCAGAGCCTTGAGGGATTTGGGTGTCGATCTTAGACACGAAGAAGCTGAAGGTCATCACCCTCTGACTGTCCGTGCTGCTGGGGTTGAAGGAGGAGAGGTTACTTTGGATGCTGGTCAGTCAAGTCAGTATCTCACTGCCTTGTTGCTCCTTGGTCCCCTTACAAGACAAGGACTGAGGATAAGGGTTACTGATTTGGTGTCAGCACCATACGTGGAGATTACGCTTGCAATGATGAGGGCTTTCGGAGTTGAAGTGGCAAGGGAGGGAGATGTGTTCGTTGTTCCACCTGGTGGATATCGTGCAACTACGTATGCTATAGAACCCGACGCAAGTACTGCTTCTTACTTCTTCGCAGCTGCTGCTTTGACTCCTGGAGCTGAAGTGACTGTACCTGGGTTAGGCACGGGAGCACTTCAAGGAGATTTGGGATTTGTAGATGTCTTAAGGAGAATGGGAGCCGAGGTGTCCGTAGGAGCTGATGCAACCACTGTTAGAGGAACTGGTGAATTGCGTGGCCTTACAGCCAACATGAGAGACATAAGTGATACGATGCCGACCCTCGCTGCAATAGCACCCTTTGCTAGTGCTCCAGTTAGAATCGAGGATGTTGCCAACACTCGTGTCAAAGAATGTGACAGACTTGAGGCTTGTGCAGAGAACCTTAGGAGGTTGGGAGTAAGGGTTGCAACGGGTCCGGACTGGATTGAGATACACCCTGGTCCAGCTACTGGTGCTCAAGTCACAAGCTATGGTGATCACAGAATTGTGATGTCATTTGCAGTGACTGGACTTCGTGTGCCTGGGATCAGCTTCGACGACCCTGGCTGTGTTCGTAAGACTTTTCCTGGGTTTCACGAGGCTTTCGCAGAATTGAGGCGTGGCATTGGGAGCTGA
modifications: In-frame fusion of dgt-28 v5 and TraP13 v2
[1]; [4]
  % Injury Ave: 14.0%
  % Injury Range (%): 0-50%
  No. plants with 20-40% injury: 0
  No. plants with <20% injury: 4
  No. plants with >40% injury: 1
[1]; [5]
  % Injury Ave: 17.6%
  % Injury Range (%): 0-50%
  No. plants with 20-40% injury: 1
  No. plants with <20% injury: 3
  No. plants with >40% injury: 1
[1]; [6]
  % Injury Ave: 39.0%
  % Injury Range (%): 5-100%
  No. plants with 20-40% injury: 0
  No. plants with <20% injury: 3
  No. plants with >40% injury: 2
[1]; [7]
  % Injury Ave: 31.2%
  % Injury Range (%): 18-70%
  No. plants with 20-40% injury: 2
  No. plants with <20% injury: 2
  No. plants with >40% injury: 1
[1]; [8]
  % Injury Ave: 39.0%
  % Injury Range (%): 5-100%
  No. plants with 20-40% injury: 0
  No. plants with <20% injury: 3
  No. plants with >40% injury: 2
[1]; [9]
  % Injury Ave: 5.0%
  % Injury Range (%): 0-20%
  No. plants with 20-40% injury: 1
  No. plants with <20% injury: 3
  No. plants with >40% injury: 0
[1]; [10]
  % Injury Ave: 5.0%
  % Injury Range (%): 0-20%
  No. plants with 20-40% injury: 1
  No. plants with <20% injury: 3
  No. plants with >40% injury: 0
[1]; [11]
  % Injury Ave: 10.0%
  % Injury Range (%): 0-20%
  No. plants with 20-40% injury: 2
  No. plants with <20% injury: 2
  No. plants with >40% injury: 0
[1]; [12]
  % Injury Ave: 15.0%
  % Injury Range (%): 5-30%
  No. plants with 20-40% injury: 2
  No. plants with <20% injury: 2
  No. plants with >40% injury: 0
[2]
  T1 Families Tested Segregating at 1 Locus (%): 75%

B2: DGT-31 (v1): Streptomyces EPSP synthase enzyme (GENBANK YP_004922608.1) (protein)
chain: MTVIDIPGSKSVTARALFLAAAADGTTTLLRPLHSDDTEGFTEGLTRLGYAVVREPDRWHIEGRPSGPAAADAEVHCRDGATTARFLPTLAAAAASGTYRFDASAQMRRRPLAPLTEALRTLGVDLRHDGAEGHHPLTIQASGVKGGGLTLDAGESSQYLTALLMLGPLTAEGLRIEVTELVSAPYVEITLAMMRGFGVEVVREGNTFTVPPGGYRATTYAIEPDASTASYFFAAAALTGREVTVPGLGTGALQGDLRFTEVLRRMDADVRTTSDSTTVRSDGRLAGLTVNMRDISDTMPTLAAIAPYASSPVRIEDVANTRVKECDRLEACAQNLRSMGITVRTGPDWIEIHPGTPRPTEIATHGDHRIVMSFAVAGLRTPGMSYDDPGCVRKTFPRFHEEFAAFVERSSAGE
modifications: DGT-31 v3 nucleotide
[3]; with transit peptide TraP8
  Herbicide tolerance: improved tolerance
[3]; with transit peptide TraP23, compared to the negative control
  Herbicide tolerance: slight herbicide tolerance

B3: DGT-32: Streptomyces EPSP synthase enzyme (GENBANK ZP_04696613) (protein, listed as Streptomyces roseosporus)
chain: MTVIEIPGSKSVTARALFLAAAADGTTTLLRPLRSDDTEGFAEGLRNLGYAVEQEADRWRVQGRPAGPAATEADVYCRDGATTARFLPTLAAAAASGTYRFDASAQMRRRPLAPLTRALTALGVDLRHEGADGHHPLTVRAAGIEGGELTLDAGESSQYLTALLMLGPLTTKGLRIEVTELVSAPYVEITLAMMRDFGVEVEREGNTFTVPSPSSRLRSNRGGPIGGYRATTYAVEPDASTASYFFAAAALTGREVTVPGLGTGALQGDLRFVDVLREMGAEVSVGPDATTVRSTGRLRGITVNMRDISDTMPTLAAIAPYADGPVVIEDVANTRVKECDRLEACAENLRAMGITVHTGPDRIEIHPGTPKPTGIATHGDHRIVMSFAVAGLRTPGLTYDDPGCVRKTFPRFHEVFADFAHDLEGR
[1]; T1 Arabidopsis
  Glyphosate tolerance: significant tolerance to glyphosate
[3]; with TraP8 and with TraP14 / TraP24 respectively
  Herbicide tolerance: robust tolerance to glyphosate
